Test results as given in paper PMC6543838, “Assessing Cofactor Usage in Pseudoclostridium thermosuccinogenes via Heterologous Expression of Central Metabolic Enzymes” (Frontiers in Microbiology, 2019).

Tests used:
purified protein [1] = substrate: Nc1nc2c(ncn2[C@@H]2O[C@H](COP(=O)(O)OP(=O)(O)OP(=O)(O)O)[C@@H](O)[C@H]2O)c(=O)[nH]1; experiment: purified protein; format: biochemical, Clostridium thermosuccinogenes; details: 5 mM D-galactose, 10 mM MgCl2, 100 mM KCl, MOPS pH 7.0, 55 °C
purified protein [2] = substrate: Nc1ncnc2c1ncn2[C@@H]1O[C@H](COP(=O)(O)OP(=O)(O)OP(=O)(O)O)[C@@H](O)[C@H]1O; experiment: purified protein; format: biochemical, Clostridium thermosuccinogenes; details: 5 mM D-galactose, 10 mM MgCl2, 100 mM KCl, MOPS pH 7.0, 55 °C

B1: galactokinase (GalK), CDQ83_02810 (Clostridium thermosuccinogenes) (protein)
chain: DINQLKQKFIEIFGDNGEALRVFSSPGRVNLIGEHTDYNGGYVFPAALTLSSTVVARPRKDRQINLIATDLGIMVSASLDELEKHKDIKWGNYQLGVADELQKAGYKLVGCDMLFHDTVPLGSGLSSSAAIEVVTAITLVTLGNEAHGVNSGIDMVEMAKISQTAEHNYVGVNCGIMDQFASAMGKANHAIFLDCKDLSFEHVPLDLKGYRIVISNTKKKRSLGAVKYNERRSECEAGLEILKKAIPGISCLGEISAEQFEKNKHLITDEVVRKRVEHVIYEDDRVLKSVEALKKGDLHSFGRYMIESHNSLRDLYEVTGLELDTLVEEALKIDGVIGSRMTGAGFGGCTVSIVREDAVDRFIEDVGSAYTQKTGITAEFYVSEVGDGGREIK
notes: full length, N-terminal His6-TEV tag kept, E. coli Rosetta, HisTrap purified
For B1, the Km (purified protein [1]) was 35 µM, the kcat (purified protein [1]) was 2.56 ⋅ 10^3 U/umol of and the Km (purified protein [2]) was 3980 µM. For the same protein, the kcat (purified protein [2]) was 1.07 ⋅ 10^3 U/umol of.
